# Laboratory results from FireProtDB (doi:10.1016/s0006-3495(99)76955-9).
# B1: Azurin, P00282 (parent)
# chain: MLRKLAAVSLLSLLSAPLLAAECSVDIQGNDQMQFNTNAITVDKSCKQFTVNLSHPGNLPKNVMGHNWVLSTAADMQGVVTDGMASGLDKDYLKPDDSRVIAHTKLIGSGEKDSVTFDVSKLKEGEQYMFFCTFPGHSALMKGTLTLK
# Variants of: B1
# Details: Pseudomonas aeruginosa (strain ATCC 15692 / DSM 22644 / CIP 104116 / JCM 14847 / LMG 12228 / 1C / PRS 101 / PAO1); pH 7.03; 20 °C; Thermal; DSC; phosphate buffer 10 mM; sodium chloride 40 microM; reversible: no; structure 5AZU; whole UniProt chain shown
Variant,unfolding enthalpy (calorimetric) [kcal/mol],unfolding free energy [kcal/mol]
C23A C46A,16,7.79
